The subject of this data set is T1, MG3-6/3-4 chimera (MG3-6 1-742 + MG3-4 743-1134) (synthetic construct).
T1 sequence: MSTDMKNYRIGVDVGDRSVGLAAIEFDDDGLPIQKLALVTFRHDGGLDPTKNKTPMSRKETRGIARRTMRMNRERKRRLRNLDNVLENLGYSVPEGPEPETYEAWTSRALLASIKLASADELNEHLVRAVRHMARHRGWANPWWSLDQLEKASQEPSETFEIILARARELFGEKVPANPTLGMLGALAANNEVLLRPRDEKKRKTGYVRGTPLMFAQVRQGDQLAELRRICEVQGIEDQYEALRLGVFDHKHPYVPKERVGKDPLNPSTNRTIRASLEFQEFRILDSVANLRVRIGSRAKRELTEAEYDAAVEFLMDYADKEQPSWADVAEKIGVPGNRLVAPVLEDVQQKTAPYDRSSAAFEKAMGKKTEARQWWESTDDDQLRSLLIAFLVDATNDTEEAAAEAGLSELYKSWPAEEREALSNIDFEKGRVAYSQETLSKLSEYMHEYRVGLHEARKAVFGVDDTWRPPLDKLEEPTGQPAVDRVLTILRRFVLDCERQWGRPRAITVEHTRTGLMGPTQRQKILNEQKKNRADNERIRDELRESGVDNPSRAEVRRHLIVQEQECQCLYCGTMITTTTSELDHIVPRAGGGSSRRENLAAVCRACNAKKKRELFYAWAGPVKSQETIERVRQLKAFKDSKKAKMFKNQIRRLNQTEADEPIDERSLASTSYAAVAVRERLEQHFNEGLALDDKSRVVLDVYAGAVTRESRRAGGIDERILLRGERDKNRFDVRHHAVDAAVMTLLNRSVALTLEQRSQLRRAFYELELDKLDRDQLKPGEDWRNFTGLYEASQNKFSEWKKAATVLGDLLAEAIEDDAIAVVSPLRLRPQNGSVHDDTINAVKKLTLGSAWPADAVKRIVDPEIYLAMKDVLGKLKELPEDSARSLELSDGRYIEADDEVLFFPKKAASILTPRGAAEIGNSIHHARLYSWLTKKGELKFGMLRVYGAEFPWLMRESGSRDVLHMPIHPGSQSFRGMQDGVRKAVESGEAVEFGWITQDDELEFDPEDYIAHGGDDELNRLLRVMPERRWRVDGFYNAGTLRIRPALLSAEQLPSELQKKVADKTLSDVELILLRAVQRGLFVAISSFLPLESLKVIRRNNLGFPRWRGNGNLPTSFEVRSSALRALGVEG
In words: cell_activity. The note with it: 2'-OMe and PS at termini; Hep3B; 25.0 % in PHH; PAM NNAAA(A/T)N.

For “CCAUCUAUCAGCUGGGAAGAUAGUUGAGAAUCGAAAGAUUCUUAAUAAGGCAUCCUUCCGAUGCUGACUUCUCACCGUCCGUUUUCCAAUAGGAGCGGGCGGUAUGUUUU / CCATCTATCAGCTGGGAAGATATCAAATG / CATTTGATATCTTCCCAGCTGATAGATGG [hH364-32 sgRNA ; human HAO1 hH364-32 target]”, the activity worked out at 60 % indel.

Values taken from patent US20250002886.
